Ends that are not written are not given here.
Assays:
Kv 1.6 = target: T1, Kv 1.6 (Rattus norvegicus, UniProt P17659); conditions: rat clone; cited from earlier work
T1 construct: expressed in transfected cells; host or cells: Xenopus oocytes injected with RNA transcribed in vitro from the cDNA clone

Kv 1.3 = target: T2, Kv 1.3 (Rattus norvegicus, UniProt P15384); assay: [125I]ChTX binding to rat brain synaptic plasma membrane vesicles
T2 construct: from tissue; host or cells: rat brain synaptic plasma membrane vesicles
T2 sequence (P15384 whole entry): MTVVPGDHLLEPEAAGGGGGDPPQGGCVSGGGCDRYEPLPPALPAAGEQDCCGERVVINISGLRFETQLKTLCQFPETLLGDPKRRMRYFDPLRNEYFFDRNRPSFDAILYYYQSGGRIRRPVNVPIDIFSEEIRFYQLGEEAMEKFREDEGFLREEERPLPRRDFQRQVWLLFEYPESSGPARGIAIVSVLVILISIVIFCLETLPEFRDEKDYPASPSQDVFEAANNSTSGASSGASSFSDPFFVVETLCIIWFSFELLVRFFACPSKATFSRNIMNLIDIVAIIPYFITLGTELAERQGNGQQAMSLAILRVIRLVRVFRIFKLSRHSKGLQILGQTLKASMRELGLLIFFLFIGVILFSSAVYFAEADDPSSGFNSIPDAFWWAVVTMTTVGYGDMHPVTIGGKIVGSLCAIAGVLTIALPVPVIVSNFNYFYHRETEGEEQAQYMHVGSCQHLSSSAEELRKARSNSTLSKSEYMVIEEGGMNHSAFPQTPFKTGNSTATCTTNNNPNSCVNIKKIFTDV
Procedure: (§1) The potency of MgTX as an inhibitor of [^125 I]ChTX binding to Kv 1.3 was evaluated. The binding of [^125 I]ChTX to either rat brain synaptic plasma membrane vesicles (Kv 1.3 channel; Vazquez et al., J. Biol. Chem. 265, 15564, 1990) or bovine aortic smooth muscle sarcolemmal membranes (Maxi-K channel; Vazquez et al., J. Biol. Chem. 264, 20402, 1989) was determined as described. Briefly, membrane vesicles were incubated with [^125 I]ChTX in the presence or absence of other added agents, until equilibrium was achieved. Separation of bound from free ligand was accomplished by filtration through GF/C glass fiber filters (WHATMAN) that had been presoaked in 0.5% polyethyleneimine. Nonspecific binding was determined in the presence of 10 nM unlabeled ChTX. Data from saturation experiments were analyzed in a Scatchard representation to determine Kd and Bmax values. Triplicate samples were obtained for each experimental point and the data were averaged. The standard deviation of the mean was typically less than 2%. […] As an indication of selectivity, MgTX had no effect on [^125 I]ChTX binding to the Maxi-K channel in smooth muscle membranes at concentrations up to 10 nM.

Maxi-K channel = target: T3, Maxi-K channel (Bos taurus, UniProt Q28204); assay: [125I]ChTX binding to bovine aortic smooth muscle sarcolemmal membranes
T3 construct: from tissue; host or cells: bovine aortic smooth muscle sarcolemmal membranes
T3 sequence (Q28204 whole entry): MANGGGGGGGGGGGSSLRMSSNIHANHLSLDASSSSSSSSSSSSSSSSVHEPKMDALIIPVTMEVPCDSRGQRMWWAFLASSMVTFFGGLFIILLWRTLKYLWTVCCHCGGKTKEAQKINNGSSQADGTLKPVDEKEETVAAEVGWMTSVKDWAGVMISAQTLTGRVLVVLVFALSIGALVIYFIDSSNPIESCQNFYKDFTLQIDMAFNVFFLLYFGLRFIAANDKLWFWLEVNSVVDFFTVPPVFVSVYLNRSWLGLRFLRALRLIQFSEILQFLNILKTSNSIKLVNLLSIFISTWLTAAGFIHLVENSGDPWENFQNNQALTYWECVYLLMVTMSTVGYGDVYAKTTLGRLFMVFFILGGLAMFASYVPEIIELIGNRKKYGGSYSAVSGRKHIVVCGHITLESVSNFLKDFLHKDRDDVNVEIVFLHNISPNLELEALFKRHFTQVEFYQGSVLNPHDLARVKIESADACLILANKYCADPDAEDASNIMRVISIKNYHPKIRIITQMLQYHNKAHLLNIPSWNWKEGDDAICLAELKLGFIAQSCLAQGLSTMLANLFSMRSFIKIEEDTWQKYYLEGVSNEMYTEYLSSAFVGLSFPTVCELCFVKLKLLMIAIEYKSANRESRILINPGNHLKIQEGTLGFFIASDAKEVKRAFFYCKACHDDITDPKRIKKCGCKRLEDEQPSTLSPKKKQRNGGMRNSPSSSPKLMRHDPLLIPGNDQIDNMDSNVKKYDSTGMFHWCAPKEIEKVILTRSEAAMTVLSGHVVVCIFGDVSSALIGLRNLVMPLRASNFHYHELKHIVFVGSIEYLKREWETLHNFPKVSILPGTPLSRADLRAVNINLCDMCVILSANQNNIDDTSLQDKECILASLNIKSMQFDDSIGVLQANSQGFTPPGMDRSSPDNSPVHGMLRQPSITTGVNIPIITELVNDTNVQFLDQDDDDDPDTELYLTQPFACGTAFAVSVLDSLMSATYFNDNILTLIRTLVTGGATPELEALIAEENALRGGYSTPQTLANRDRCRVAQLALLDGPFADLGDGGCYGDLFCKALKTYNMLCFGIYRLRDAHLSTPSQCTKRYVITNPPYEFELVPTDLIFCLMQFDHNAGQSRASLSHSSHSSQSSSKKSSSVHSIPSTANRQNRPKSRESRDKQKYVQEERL
T3 sequence (Q28067 whole entry partner): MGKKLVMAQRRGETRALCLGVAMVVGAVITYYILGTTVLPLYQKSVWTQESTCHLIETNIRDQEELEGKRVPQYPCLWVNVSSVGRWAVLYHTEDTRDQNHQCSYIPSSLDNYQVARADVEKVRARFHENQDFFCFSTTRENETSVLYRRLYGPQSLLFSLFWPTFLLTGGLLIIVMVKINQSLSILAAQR
Procedure: as §1

[1] = target: T4, lymphocyte Kv 1.3 current (Homo sapiens, UniProt P22001); assay: Whole cell patch clamp of human peripheral T-lymphocytes; assay type: cell-based; conditions: electrophysiology, Example 8
T4 construct: endogenous in cells; host or cells: purified human peripheral blood T lymphocytes
T4 sequence (P22001 whole entry): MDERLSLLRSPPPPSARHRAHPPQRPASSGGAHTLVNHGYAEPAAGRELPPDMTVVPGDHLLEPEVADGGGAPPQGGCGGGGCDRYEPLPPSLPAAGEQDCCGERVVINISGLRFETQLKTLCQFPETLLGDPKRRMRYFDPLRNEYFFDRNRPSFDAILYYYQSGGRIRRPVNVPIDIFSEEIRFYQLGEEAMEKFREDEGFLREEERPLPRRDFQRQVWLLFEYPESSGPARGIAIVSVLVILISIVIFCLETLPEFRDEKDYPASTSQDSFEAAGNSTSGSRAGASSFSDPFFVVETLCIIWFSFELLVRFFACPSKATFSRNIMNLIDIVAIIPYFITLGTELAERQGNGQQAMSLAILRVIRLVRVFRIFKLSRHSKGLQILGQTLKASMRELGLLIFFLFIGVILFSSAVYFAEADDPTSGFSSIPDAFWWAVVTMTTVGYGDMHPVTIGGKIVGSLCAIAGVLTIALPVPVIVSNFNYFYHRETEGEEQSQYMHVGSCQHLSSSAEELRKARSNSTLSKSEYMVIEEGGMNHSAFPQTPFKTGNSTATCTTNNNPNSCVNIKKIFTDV
Procedure: Ionic currents were recorded from human peripheral T-lymphocytes using the whole cell patch clamp technique described in Cahalan, M. and Neher, E., Meth. Enzymol. 207, 3, 1992. Purified human T cells were obtained as described in Leonard et al., Proc. Natl. Acad. Sci. U.S.A., 89, 10094, 1992, and recordings were carried out in a bath solution consisting of ^125 mM NaCl, 2.5 mM KCl, 1.0 mM CaCl2, 2.0 mM MgCl2, 10 mM HEPES (potassium salt), 10 mM glucose, 5 mM Na-pyruvate, and 0.05% BSA. The pH was adjusted to 7.2, and experiments were performed at room temperature (19°-22° C.). The intracellular (pipette) solution contained 140 mM K-glutamate, 1 mM MgCl2, 10 mM HEPES (potassium salt), and 0.1 mM EGTA. The pH was adjusted to 7.2. Patch pipettes were fabricated from DAGAN (Minneapolis, Minn.) LG-16 glass and had resistances of 2 to 8M.OMEGA.. Currents were measured using a DAGAN model 3900 patch clamp. Delivery of command voltages, data acquisition, and post-acquisition analysis were aided by a microcomputer running the Pclamp program suite (AXON INSTRUMENTS, Foster City, Calif.).
Methods for oocyte isolation and micro-injection were previously described in Goldin, Meth. Cell Biol, 36, 487, 1991, and Swanson and Folander, Meth. Enzymol., 207, 310, 1992. Currents expressed in oocytes were measured using a DAGAN model CA-1 two-electrode voltage clamp. Delivery of command voltages, data acquisition and post-acquisition analysis were aided by a microcomputer running the Pclamp program suite. The oocyte bathing solution consisted of 96 mM NaCl, 2.5 mM KCl, 1 mM MgCl2, 1.8 mM CaCl2, 10 mM HEPES, and 0.05% BSA. The pH was 7.2. All recordings were obtained at room temperature (19°-22° C.). The intracellular microelectrodes were fabricated from DAGAN LE-16 glass in a two-stage pull to a final resistance of 0.6 to 2M.OMEGA. and filled with 3M KCl. For both lymphocyte and oocyte experiments, peptides were diluted into the extracellular solution from 20 μM aqueous stock containing 100 mM NaCl. The presence of 0.05% BSA in the bath solution inhibited non-specific loss of dilute peptide toxins in the perfusion tubing.
Both native and recombinant MgTX were tested for their ability to block voltage gated K^+ channels. […] There was insufficient native toxin to carry out selectivity studies, so those were conducted using the recombinant material exclusively. […] The apparent IC50 for inhibition of the lymphocyte Kv 1.3 current is between 20 to 100 pM. […] As reported previously, MgTX has no effect on three different ChTX-sensitive, Ca^2+ -activated K^+ channels of lymphocytes, even at 100 nM (Leonard et al., Proc. Natl. Acad. Sci. U.S.A. 89, 10094, 1992).

T1 sequence (P17659 whole entry): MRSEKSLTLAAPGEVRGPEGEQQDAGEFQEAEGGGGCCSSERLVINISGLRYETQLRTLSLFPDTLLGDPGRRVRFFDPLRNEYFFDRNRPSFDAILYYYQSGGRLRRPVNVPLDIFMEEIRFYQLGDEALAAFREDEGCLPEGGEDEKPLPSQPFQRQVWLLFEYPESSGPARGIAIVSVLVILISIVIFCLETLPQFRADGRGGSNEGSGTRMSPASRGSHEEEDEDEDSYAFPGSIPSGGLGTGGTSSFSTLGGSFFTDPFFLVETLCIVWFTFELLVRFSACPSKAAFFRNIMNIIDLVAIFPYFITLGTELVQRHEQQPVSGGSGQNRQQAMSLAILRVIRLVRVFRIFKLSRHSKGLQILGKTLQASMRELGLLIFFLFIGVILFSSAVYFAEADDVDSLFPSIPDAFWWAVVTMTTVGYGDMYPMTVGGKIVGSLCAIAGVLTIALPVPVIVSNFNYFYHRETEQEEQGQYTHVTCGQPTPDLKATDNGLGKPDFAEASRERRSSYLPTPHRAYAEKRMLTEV

Substance	IC50 (Kv 1.6)	potency for inhibition of [125I]ChTX binding to brain membranes compared with native MgTX (Kv 1.3)	effect on ChTX binding to the Maxi-K channel (Maxi-K channel)	potency and selectivity as an inhibitor of Kv 1.3 compared with native peptide [1]	potency and selectivity as an inhibitor of Kv 1.3 compared with native peptide ([1]; listed as recombinant MgTX)
charybdotoxin [ChTX]	> 1000 nM				
rMgTX: recombinant MgTX expressed in E. coli as T7 gene 9 fusion protein, cleaved with factor Xa; identical to native peptide (TIINVKCTSPKQCLPPCKAQFGQSAGAKCMNGKCKCYPH; ends and bridges not checked; cysteine pairing not given here; UniProt P40755 1-39, looked up)		same potency as native MgTX	did not affect	same potency and selectivity	identical results

Source: patent US5494895A, “Scorpion peptide margatoxin with immunosuppressant activity” (Merck & Co., Inc., priority 1993, dated 1996)
